The results in this text go back to US20200299389A1 (AP BIOSCIENCES, published 2020).

Assay [1] has as its target recombinant PD-L1 protein (UniProt Q9NZQ7 19-238, limits assumed). Briefly: direct ELISA on coated recombinant PD-L1, anti-human F(ab')2-HRP detection.
Another assay deals with T1, murine PD-L1 (murine, UniProt Q9EP73 19-238, limits assumed).
T1 construct: also called rodent PD-L1
Briefly: not described.

T1 sequence (Q9EP73 19-238 limits assumed): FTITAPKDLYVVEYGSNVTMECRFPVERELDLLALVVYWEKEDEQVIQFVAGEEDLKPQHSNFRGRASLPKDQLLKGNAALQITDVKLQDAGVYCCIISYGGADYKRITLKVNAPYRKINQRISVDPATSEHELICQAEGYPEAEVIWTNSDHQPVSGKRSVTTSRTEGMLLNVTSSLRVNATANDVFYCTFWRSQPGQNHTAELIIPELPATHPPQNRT
Sequence of recombinant PD-L1 protein (Q9NZQ7 19-238 limits assumed): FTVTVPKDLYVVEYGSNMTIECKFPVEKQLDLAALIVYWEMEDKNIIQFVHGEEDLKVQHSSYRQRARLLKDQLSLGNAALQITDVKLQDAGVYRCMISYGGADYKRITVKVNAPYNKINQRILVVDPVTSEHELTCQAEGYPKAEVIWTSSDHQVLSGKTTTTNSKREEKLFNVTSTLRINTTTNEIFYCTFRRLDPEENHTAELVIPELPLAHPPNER

B1: anti-PD-L1 antibody clone 6 (antibody, V domains shown)
VH: QVQLVQSGAEVKKPGSSVKVSCKASGGTFRRYSISWVRQAPGQGLEWMGGIIPVFGAAKYAQKFQGRVTITADEFTSTAYMELSSLTSEDTAVYYCALSGDSDAFDIWGQGTMVTVSS
VL: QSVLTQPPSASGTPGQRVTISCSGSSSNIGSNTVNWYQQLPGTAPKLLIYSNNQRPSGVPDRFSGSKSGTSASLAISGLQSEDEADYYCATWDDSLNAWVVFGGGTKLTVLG
notes: also called PD-L1-Clone 6; anti-PD-L1 clone 6 antibody
Regarding B1, the EC50 – broadly, the concentration needed to bring the measured effect to its halfway point – in assay [1] is 0.1 nM. Moreover, the binding result with murine PD-L1 was “no binding”.
